Values joined by “and” are separate entries in the source; they are usually repeats but may differ in a detail not shown here. Equal values may be shown once.
What was measured:
[1] = target: FcγRIIB-streptavidin fusion protein (tetramer) (human; Streptomyces avidinii) (UniProt P31994); experiment: ELISA: antibody captured on protein A/G, FcγRIIB-streptavidin, biotin-HRP, OD450
[2] = target: FcγRIIIA (soluble receptor used as analyte in the BIAcore runs) (human) (UniProt P08637); experiment: BIAcore run 2, IgG immobilized, soluble FcγRIIIA, steady-state isotherm
FcγRIIIA (soluble receptor used as analyte in the BIAcore runs) (human), sequence (P08637 17-208): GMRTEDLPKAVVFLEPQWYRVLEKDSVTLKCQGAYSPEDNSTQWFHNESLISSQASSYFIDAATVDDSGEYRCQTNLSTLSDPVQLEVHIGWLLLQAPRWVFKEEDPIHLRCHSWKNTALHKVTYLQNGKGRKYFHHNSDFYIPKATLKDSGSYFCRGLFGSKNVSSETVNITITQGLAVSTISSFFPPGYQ

[3] = target: FcγRIIIA (soluble receptor used as analyte in the BIAcore runs) (human) (UniProt P08637); experiment: BIAcore run 1, IgG immobilized, soluble FcγRIIIA, Scatchard plot
[4] = target: FcγRIIIA (soluble receptor used as analyte in the BIAcore runs) (human) (UniProt P08637); experiment: BIAcore run 1, IgG immobilized, soluble FcγRIIIA, steady-state isotherm
[5] = target: FcγRIIIA (soluble receptor used as analyte in the BIAcore runs) (human) (UniProt P08637); experiment: BIAcore run 2, IgG immobilized, soluble FcγRIIIA, Scatchard plot
[6] = target: FcγRIIIA-streptavidin fusion protein (tetramer) (human; Streptomyces avidinii) (UniProt P08637); experiment: ELISA: antibody captured on protein A/G, FcγRIIIA tetramer (streptavidin fusion), biotin-HRP, OD450

Substance: Vitaxin®-1M (Vitaxin® Fc variant I332E, IgG1) (from UniProt P01857 1-330) (antibody)
- EC50 (read off the curve) [1]: 0.3 µg/mL

Substance: Vitaxin® (wild type IgG1 antibody)
- EC50 (read off the curve) [1]: 0.4 µg/mL and 0.3 µg/mL
- Kd [2]: 8.9 µM
- Kd [3]: 3.26 µM
- Kd [4]: 3.47 µM
- Kd [5]: 7.6 µM

Substance: 3F2-1M (3F2 Fc variant I332E, IgG1) (from UniProt P01857 1-330) (antibody)
- EC50 (read off the curve) [6]: 0.05 µg/mL

Substance: 3F2-3M (3F2 Fc variant S239D/A330L/I332E, IgG1) (from UniProt P01857 1-330) (antibody)
- EC50 (read off the curve) [6]: 0.05 µg/mL
